Experimental data taken from the RNAGym collection of RNA variant scans (doi:10.1073/pnas.2313332121).

B1: TPR t1 (parent)
chain: GACCAAUCUGCCCUCAGAGCUCGAGAACAUCUUCGGAUGCAGAGGAGGCAGGCUUCGGUGGCGCGAUAGCGCCAACGUCCUCAACCUCCAAUGCAUCCCACCACAUGAUGAUGCCUGAAGAGCCUUGGUUUUUUG

Variants of: B1
Experiment: polymerase ribozyme fitness, log enrichment relative to wild type (log ratio); higher = more active; in vitro selection for triplet polymerase activity
How it was run: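 Genotype fitness is the logarithm of its enrichment divided by wild-type enrichment, using inverse-variance-weighted averages of replicates. That logarithm is base 2. Enrichment was measured by Illumina sequencing of input and output libraries from one triplicate in vitro selection round, with frozen incubation at −7 °C, on PCR-built, transcribed mutant libraries of each subunit of a heterodimeric triplet polymerase ribozyme, retaining genotypes with ≥10 input reads and ≥1 read per output.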

In order of rising “polymerase ribozyme fitness (log ratio)” value:
1. G71U C99G C115U  -7.86
2. G25A C28A C31G G63U A74G C99U  -7.56
3. C56G C99A  -6.98
4. C8G G48U G58C A75U U109C G113U  -6.98
5. A2U C11U A27U G48U C64A C99G G113C  -6.93
6. A2C U55C C82G A91C A105U C123G  -6.66
7. G63A C97A  -6.64
8. C11U C53A G63C A103C G113U  -6.41
9. C22U G45U G48C C102A C124G G128A  -6.17
10. U33A U129A  -6.13
11. A24C G35A U55G C115U G127U  -6.12
12. A24G U38G C56A C80A  -5.92
13. A46U G48U C76A U78C C82U  -5.9
14. C34U G52A C62G A119G C123U G135C  -5.87
15. C4U C13G C15A G19A A90C C115U A119G  -5.79
16. C28A C62A  -5.73
17. A5U G17A C49A G60A C89U  -5.58
18. G44A U59A G63A C89G C115A C124A U129A  -5.52
19. G39A A43U C72U C73G C115G U126C  -5.51
20. G35A G60C  -5.49
21. C22U U78A U106G G120C  -5.48
22. U38G A43U G48U C88G  -5.48
23. C8G U30C C70U G113C U133A  -5.26
24. C20A C86G C114U C115U  -5.24
25. A68G C73G C82U  -5.21
26. G42U G45C C70U A83G  -5.2
27. C20U G61C A111G  -5.2
28. A6C A18C C49U C70U C82U  -5.19
29. C20A G39A G42C G61U U129C  -5.17
30. C15U C34G C53U C114U  -5.11
31. G47C A50U C72U U81C C114U  -5.1
32. G19U G45U G60U A119U  -5.1
33. G47U A100U U116A G117A U132A  -5.1
34. C12U A18G G63C C88G A90C C114A G122A  -5.09
35. G51C A100U  -5.07
36. U92A G110A  -5.07
37. C28U G45A C70U G113A A118U U131C  -4.94
38. G63A C89A C115G  -4.92
39. C22G G69A A90U U106A A111U  -4.92
40. A108C C124G  -4.87
41. A27G C34U  -4.85
42. G17A G47U  -4.84
43. U81A A91G U92G  -4.76
44. G47A C72A C86A U96G G117U  -4.69
45. G61A G69C U116C  -4.59
46. C8U C12U C64A C123U  -4.54
47. U33A U59A U112C G122C  -4.47
48. U33C U131A  -4.45
49. C13U A66U C70U C72G C88U G120A U126C  -4.41
50. U14A C70G U125A  -4.4
51. C97U G117C  -4.37
52. C3U G39U G47A G117A  -4.33
53. C79G U126A G128U  -4.31
54. C15U A37G G71A C80U A118U U133A  -4.3
55. A29G A74U U109A C114U  -4.26
56. C56A C70U U92G  -4.08
57. A41U G69C  -4.05
58. A46U C102U  -4.01
59. A27G G71A C72U A95G  -4
60. A41C A46C C72G C97U U133A  -3.71
61. C11U A18G C72A  -3.7
62. G17A G36U  -3.69
63. C20U G52U C53U C56A C123A  -3.62
64. A27U C62U  -3.58
65. G17U U55A G77C C86G C124U  -3.47
66. U81A C82A C98U  -3.39
67. A41C C89G  -3.37
68. C3A C72U G93U A111G  -3.35
69. A2C C102A  -3.35
70. C62G G117U  -3.34
71. U106A C114G  -3.33
72. A68G A100U U133A  -3.27
73. G45A G47U A66U C73A C82U  -3.27
74. C8A A75U C85A A90C G93A  -3.24
75. A37U G39U C72U U125G  -3.21
76. C104A G110A  -3.18
77. C70G U130A  -3.16
78. G17U G47A G71C  -3.03
79. A2U C15A A16C G17A C72A C85G A118U C124G  -2.91
80. C73A C86U A100U C102A  -2.87
81. U21A A43U G60A C115U  -2.81
82. C34A C62U  -2.79
83. C4U A37U U38A A46G A50G  -2.72
84. A26G U133G  -2.68
85. C70A U96A  -2.63
86. C70G U96C  -2.6
87. C4G G135U  -2.5
88. G69C U96A  -2.44
89. C70U C114A  -2.33
90. G42A U78A U87C C114U  -2.27
91. C4G C15U U96A G127C  -2.26
92. G57A C115G  -2.25
93. C8A G71A C104A  -2.19
94. C13G A66U  -2.18
95. G39U G61C U130G  -2.15
96. C34A C123A U132C  -2.13
97. G48A G52U U55C U125A  -2.1
98. C20U A43U  -2.08
99. C4U A46U A95C  -2.04
100. A27G A50G C72U U81A  -2
101. C15U G63C U129C  -2
102. U7C G10A C11G A91U A111G  -1.99
103. U7G A46U G61C U112A  -1.98
104. C70U G71A U129G  -1.98
105. C86A G127C  -1.91
106. A37U G93U  -1.86
107. U54G C102U  -1.84
108. U21G G71U G110U U112A  -1.83
109. C56U C88U C114A G120A  -1.81
110. G57A A84C  -1.76
111. C4G C11G G39A  -1.72
112. G71U C85A  -1.72
113. A5U C11A G42C C88U U106A A121C U125A  -1.65
114. A5G A91C  -1.57
115. A16G C76G G117A C123G G135U  -1.57
116. U106A G117A  -1.55
117. A6U A46G C70U U133A  -1.52
118. C20U G60U  -1.52
119. G47U G60U U112G  -1.51
120. C11A C62U  -1.47
121. U9C G42C C53A U55C U130G  -1.45
122. U9G G36U C70U A74U  -1.42
123. C13A G58C  -1.37
124. G39A C88A  -1.32
125. G42U G57C C104U U125G  -1.31
126. U7A G48C A74U G113A U130C U133G  -1.3
127. A100C G120A G122A  -1.28
128. C8G C15U C49A G93C  -1.27
129. C8A G47C U133G  -1.25
130. C62U C85U C123A  -1.23
131. G52U C53A  -1.2
132. G120C U129A  -1.15
133. U14G G120U  -1.14
134. C12U C49A A50C A95C  -1.09
135. G52U G61C C124G U131G  -1.09
136. C62U A84G C101A C123U  -1.03
137. C49A C85A G93C U106A  -1.01
138. C73U C101G G120U  -0.999
139. U32C G44U G60A  -0.98
140. C13U U59A U81C  -0.938
141. G47A G48C A100U U112A  -0.897
142. U54A C64U A95C  -0.888
143. G39C U78A  -0.87
144. U54G C80U U133A  -0.863
145. G48C A83U U87A  -0.806
146. C64U C82G C88U U131G  -0.778
147. G57U C70U C76G U131C  -0.726
148. C79G C114A  -0.594
149. G10C  -0.497
150. C56A G58C  -0.496
151. U7A C72A G93C  -0.463
152. U54C G60U U133G  -0.398
153. C15A A46U G117U C124U U132C  -0.364
154. G39A C123A  -0.277
155. C80U U106A  -0.267
156. C12G A74U  -0.266
157. C62A G120A U133A  -0.165
158. U9G C72G U87G  -0.102
159. G60A G93A  0.0256
160. C8G A50C  0.0345
161. C11U G61A  0.135
162. C56U U130A  0.174
163. U7G A18U A121U  0.525
164. C70U C82G C124A U130C  0.602
165. C4U C49U C73G A121C  0.746
166. A121C G122A  1.31
167. C28A A83U G110U  1.66
